# Results as given in patent EP2123670B1 (Bioxodes SA, dated 2017).
# T1: factor VIIa (UniProt P08709 61-466)
# T1 construct: also called fVIIa; FVIIa
# T1 sequence (looked up): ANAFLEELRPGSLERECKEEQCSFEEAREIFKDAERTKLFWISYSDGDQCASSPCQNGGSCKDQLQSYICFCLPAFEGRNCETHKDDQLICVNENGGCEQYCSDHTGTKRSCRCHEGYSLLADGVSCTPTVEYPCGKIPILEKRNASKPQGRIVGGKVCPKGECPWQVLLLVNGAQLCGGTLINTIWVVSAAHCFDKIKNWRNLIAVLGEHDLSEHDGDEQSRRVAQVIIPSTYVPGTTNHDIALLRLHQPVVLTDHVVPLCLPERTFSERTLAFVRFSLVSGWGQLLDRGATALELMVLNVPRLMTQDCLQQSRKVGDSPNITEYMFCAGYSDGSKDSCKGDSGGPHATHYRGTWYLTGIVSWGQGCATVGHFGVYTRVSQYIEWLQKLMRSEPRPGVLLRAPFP
# T2: high molecular weight kininogen (UniProt P01042 19-644)
# T2 construct: also called HMWK
# T2 sequence (looked up): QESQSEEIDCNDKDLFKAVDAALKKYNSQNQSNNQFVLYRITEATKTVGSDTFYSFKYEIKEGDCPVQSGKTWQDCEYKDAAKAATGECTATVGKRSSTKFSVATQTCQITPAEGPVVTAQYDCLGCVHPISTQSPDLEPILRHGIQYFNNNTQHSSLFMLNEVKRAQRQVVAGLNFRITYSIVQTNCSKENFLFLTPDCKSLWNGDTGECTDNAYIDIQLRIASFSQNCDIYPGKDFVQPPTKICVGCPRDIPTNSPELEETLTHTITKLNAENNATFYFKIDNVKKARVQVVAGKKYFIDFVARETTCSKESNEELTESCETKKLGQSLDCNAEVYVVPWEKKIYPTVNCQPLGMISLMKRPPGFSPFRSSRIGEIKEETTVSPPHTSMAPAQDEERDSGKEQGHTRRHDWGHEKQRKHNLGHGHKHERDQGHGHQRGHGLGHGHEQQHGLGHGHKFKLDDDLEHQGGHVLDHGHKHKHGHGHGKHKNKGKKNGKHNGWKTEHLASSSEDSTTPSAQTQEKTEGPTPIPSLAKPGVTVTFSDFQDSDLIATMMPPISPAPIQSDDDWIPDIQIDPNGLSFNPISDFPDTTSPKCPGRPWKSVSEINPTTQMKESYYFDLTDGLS
# B1: Ir-CPI (other)
# chain: ANHKGRGRPAKCKLPPDDGPCRARIPSYYFDRKTKTCKEFMYGGCEGNENNFENITTCQEECRAKKV
# notes: Expressed in E. coli as a GST fusion (pGEX-6P-1), released with PreScission protease and purified by gel filtration; Immobilised on a CM5 chip by amine coupling in the SPR assays; also called recombinant Ir-CPI
# Legend:
# [1] = biological target: T3, plasmin (UniProt P00747 97-810); test: SPR (BIAcore X), Ir-CPI immobilised at about 200 RU, factor injected at 5-300 nM; two-state model, ka1 (first step)
# T3 sequence (P00747 97-810 limits assumed): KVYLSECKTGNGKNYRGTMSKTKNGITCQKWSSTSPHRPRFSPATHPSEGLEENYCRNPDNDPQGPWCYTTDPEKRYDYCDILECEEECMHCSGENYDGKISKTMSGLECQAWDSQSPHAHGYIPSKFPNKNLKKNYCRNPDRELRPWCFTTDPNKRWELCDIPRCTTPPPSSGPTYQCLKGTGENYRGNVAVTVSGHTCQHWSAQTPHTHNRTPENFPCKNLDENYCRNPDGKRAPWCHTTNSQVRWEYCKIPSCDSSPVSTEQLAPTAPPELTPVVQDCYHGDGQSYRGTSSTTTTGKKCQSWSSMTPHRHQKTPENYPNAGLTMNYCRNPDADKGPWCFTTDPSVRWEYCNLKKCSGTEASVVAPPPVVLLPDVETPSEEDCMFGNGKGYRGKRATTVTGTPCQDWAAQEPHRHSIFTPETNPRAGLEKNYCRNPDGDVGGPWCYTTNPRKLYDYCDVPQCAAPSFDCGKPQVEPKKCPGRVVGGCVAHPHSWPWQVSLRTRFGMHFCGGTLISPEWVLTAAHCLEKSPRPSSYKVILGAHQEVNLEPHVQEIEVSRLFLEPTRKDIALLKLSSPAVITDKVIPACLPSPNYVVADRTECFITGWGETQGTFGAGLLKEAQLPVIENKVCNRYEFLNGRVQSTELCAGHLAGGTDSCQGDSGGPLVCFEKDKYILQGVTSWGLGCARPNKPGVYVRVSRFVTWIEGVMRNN
# [2] = biological target: T4, plasma kallikrein (UniProt P03952 20-638); test: as above
# T4 construct: The active enzyme is the cleaved two-chain form of the precursor
# T4 sequence (P03952 20-638 limits assumed): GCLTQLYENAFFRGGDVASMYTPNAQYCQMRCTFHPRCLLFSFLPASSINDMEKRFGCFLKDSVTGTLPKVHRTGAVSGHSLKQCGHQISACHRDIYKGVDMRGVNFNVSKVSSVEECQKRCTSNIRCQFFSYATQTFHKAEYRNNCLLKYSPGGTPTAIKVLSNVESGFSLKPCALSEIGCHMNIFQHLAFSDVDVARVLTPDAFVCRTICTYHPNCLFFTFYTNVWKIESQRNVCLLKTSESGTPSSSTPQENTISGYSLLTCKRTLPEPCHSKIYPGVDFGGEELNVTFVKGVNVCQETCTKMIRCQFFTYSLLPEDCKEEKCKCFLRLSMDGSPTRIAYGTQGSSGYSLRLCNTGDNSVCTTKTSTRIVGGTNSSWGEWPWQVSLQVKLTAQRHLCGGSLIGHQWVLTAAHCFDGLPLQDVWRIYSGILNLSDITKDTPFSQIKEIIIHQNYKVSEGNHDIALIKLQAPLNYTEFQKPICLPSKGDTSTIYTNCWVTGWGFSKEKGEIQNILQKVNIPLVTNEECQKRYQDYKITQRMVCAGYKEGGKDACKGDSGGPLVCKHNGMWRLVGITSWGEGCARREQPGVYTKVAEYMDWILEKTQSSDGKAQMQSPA
# [3] = biological target: T5, factor XIa (UniProt P03951 19-625); test: as above
# T5 construct: also called fXIa; FXIa
# [4] = biological target: T3, plasmin; test: SPR, Ir-CPI immobilised; two-state model, backward rate of the conformation change
# [5] = biological target: T4, plasma kallikrein; test: as above
# [6] = biological target: T5, factor XIa; test: as above
# [7] = biological target: T3, plasmin; test: SPR (BIAcore X), Ir-CPI immobilised at about 200 RU, factor injected at 5-300 nM; two-state model, kd1 (first step)
# [8] = biological target: T4, plasma kallikrein; test: as above
# [9] = biological target: T5, factor XIa; test: as above
# [10] = biological target: T6, plasminogen (UniProt P00747 20-810, limits assumed); test: SPR (BIAcore X), Ir-CPI immobilised at 1500 RU on CM5, factor injected
# T6 construct: Zymogen
# T6 sequence (P00747 20-810 limits assumed): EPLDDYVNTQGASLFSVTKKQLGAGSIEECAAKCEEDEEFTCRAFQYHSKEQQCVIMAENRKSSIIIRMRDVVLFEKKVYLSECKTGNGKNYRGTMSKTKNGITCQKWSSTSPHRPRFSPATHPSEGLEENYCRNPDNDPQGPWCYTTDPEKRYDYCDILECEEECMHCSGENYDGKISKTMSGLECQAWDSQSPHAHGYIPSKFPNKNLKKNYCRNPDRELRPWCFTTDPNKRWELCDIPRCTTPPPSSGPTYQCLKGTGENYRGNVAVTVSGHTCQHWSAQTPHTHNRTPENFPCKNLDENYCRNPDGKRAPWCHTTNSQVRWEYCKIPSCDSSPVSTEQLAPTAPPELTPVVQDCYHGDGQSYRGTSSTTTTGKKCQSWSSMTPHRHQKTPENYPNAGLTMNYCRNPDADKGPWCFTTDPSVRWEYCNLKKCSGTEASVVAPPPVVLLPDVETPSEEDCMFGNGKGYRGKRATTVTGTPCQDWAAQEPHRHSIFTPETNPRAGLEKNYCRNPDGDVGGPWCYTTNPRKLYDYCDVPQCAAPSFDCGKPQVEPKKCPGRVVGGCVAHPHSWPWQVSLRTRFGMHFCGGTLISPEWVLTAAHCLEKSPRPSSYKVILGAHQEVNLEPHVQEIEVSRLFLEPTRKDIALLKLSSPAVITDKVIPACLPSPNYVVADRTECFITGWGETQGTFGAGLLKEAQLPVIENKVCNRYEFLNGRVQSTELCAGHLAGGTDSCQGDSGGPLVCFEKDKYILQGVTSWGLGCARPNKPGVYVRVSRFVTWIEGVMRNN
# [11] = biological target: T7, factor X (UniProt P00742 41-488); test: as above
# T7 construct: Zymogen; also called fX
# [12] = biological target: T1, factor VIIa; test: as above
# [13] = biological target: T8, factor IX (UniProt P00740 47-461); test: as above
# T8 construct: Zymogen; also called fIX
# [14] = biological target: t-PA (UniProt P00750 36-562); test: as above
# t-PA, sequence (P00750 36-562 limits assumed): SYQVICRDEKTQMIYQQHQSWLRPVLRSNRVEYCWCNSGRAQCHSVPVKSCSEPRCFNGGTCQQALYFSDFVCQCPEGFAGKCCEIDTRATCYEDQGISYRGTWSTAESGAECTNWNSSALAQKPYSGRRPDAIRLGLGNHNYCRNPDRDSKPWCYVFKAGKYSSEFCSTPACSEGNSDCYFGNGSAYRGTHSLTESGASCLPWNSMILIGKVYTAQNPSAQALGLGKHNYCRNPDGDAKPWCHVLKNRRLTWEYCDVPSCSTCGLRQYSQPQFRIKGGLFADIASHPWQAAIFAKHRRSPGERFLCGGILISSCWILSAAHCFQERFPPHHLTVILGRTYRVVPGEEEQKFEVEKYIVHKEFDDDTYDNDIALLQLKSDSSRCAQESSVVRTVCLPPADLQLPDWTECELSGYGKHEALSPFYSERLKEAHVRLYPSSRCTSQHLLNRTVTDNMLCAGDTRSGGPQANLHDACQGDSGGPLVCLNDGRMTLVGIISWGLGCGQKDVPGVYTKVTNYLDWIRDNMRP
# [15] = biological target: T9, thrombin (UniProt P00734 328-622); test: as above
# T9 construct: also called factor IIa; IIa
# [16] = biological target: T2, high molecular weight kininogen; test: as above
# [17] = biological target: T3, plasmin; test: SPR, Ir-CPI immobilised; two-state model, global equilibrium constant K = ka1ka2/kd1kd2
# [18] = biological target: T4, plasma kallikrein; test: as above
# [19] = biological target: T5, factor XIa; test: as above
# [20] = biological target: T3, plasmin; test: SPR, Ir-CPI immobilised; two-state model, forward rate of the conformation change
# [21] = biological target: T4, plasma kallikrein; test: as above
# [22] = biological target: T5, factor XIa; test: as above
binder,measurement,setting,value
B1,kon,[1],900000 M⁻¹ s⁻¹
same,kon,[2],34900 M⁻¹ s⁻¹
same,kon,[3],2.31e+06 M⁻¹ s⁻¹
same,kd2,[4],0.00614 s⁻¹
same,kd2,[5],0.00142 s⁻¹
same,kd2,[6],0.00232 s⁻¹
same,koff,[7],0.00535 s⁻¹
same,koff,[8],0.0532 s⁻¹
same,koff,[9],0.102 s⁻¹
same,binding result,[10],no binding (tested: 100 nM)
same,binding result,[11],no binding (tested: 100 nM)
same,binding result,[12],no binding (tested: 100 nM)
same,binding result,[13],no binding (tested: 100 nM)
same,binding result,[14],no binding (tested: 100 nM)
same,binding result,[15],no binding (tested: 100 nM)
same,binding result,[16],no binding (tested: 100 nM)
same,Ka,[17],3.3e+08 M⁻¹
same,Ka,[18],4.51e+06 M⁻¹
same,Ka,[19],3.83e+08 M⁻¹
same,ka2,[20],0.00582 s⁻¹
same,ka2,[21],0.00834 s⁻¹
same,ka2,[22],0.0298 s⁻¹
